T1: adrenodoxin reductase (ADR) (Homo sapiens, UniProt P22570)
T1 chain: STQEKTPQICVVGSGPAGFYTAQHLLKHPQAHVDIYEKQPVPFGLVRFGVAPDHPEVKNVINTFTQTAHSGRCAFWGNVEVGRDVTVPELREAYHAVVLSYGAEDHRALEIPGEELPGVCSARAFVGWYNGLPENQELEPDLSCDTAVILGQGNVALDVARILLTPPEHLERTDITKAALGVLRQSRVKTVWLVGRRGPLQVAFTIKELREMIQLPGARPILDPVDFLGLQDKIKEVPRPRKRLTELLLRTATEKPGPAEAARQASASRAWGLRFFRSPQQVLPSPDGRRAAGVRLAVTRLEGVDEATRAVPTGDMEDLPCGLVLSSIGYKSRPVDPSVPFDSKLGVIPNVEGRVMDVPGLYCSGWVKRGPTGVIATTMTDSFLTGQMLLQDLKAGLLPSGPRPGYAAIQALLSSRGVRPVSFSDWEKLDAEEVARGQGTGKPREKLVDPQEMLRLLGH

B1: ferrochelatase (FECH) (protein)
chain: GAKPQVQPQKRKPKTGILMLNMGGPETLGDVHDFLLRLFLDRDLMTLPIQNKLAPFIAKRRTPKIQEQYRRIGGGSPIKIWTSKQGEGMVKLLDELSPNTAPHKYYIGFRYVHPLTEEAIEEMERDGLERAIAFTQYPQYSCSTTGSSLNAIYRYYNQVGRKPTMKWSTIDRWPTHHLLIQCFADHILKELDHFPLEKRSEVVILFSAHSLPMSVVNRGDPYPQEVSATVQKVMERLEYCNPYRLVWQSKVGPMPWLGPQTDESIKGLCERGRKNILLVPIAFTSDHIETLYELDIEYSQVLAKECGVENIRRAESLNGNPLFSKALADLVHSHIQSNELCSKQLTLSCPLCVNPVCRETKSFFTSQQL

Assays:
Assay in all cases: SPR
[1] = biological target: Adrenodoxin reductase (Homo sapiens) (UniProt P22570); conditions: cited from earlier work
[2] = biological target: Adrenodoxin reductase (Homo sapiens) (UniProt P22570); conditions: cited from earlier work; remark: listed apart in the source
[3] = biological target: T1, adrenodoxin reductase (ADR)
ferrochelatase (FECH) = biological target: B1
SPR = biological target: the molecule itself

Row | Kd [3] | Kd (ferrochelatase (FECH)) | Molecule | Kd [1] | Kd [2] | Kd (SPR)
1 | – | – | Ferrochelatase (from UniProt P22830) | 2000 nM | 13 µM | –
2 | 13.7 µM | 560 nM | ferrochelatase (FECH) (protein, 100 uM 5-nitroisatin) GAKPQVQPQKRKPKTGILMLNMGGPETLGDVHDFLLRLFLDRDLMTLPIQNKLAPFIAKRRTPKIQEQYRRIGGGSPIKIWTSKQGEGMVKLLDELSPNTAPHKYYIGFRYVHPLTEEAIEEMERDGLERAIAFTQYPQYSCSTTGSSLNAIYRYYNQVGRKPTMKWSTIDRWPTHHLLIQCFADHILKELDHFPLEKRSEVVILFSAHSLPMSVVNRGDPYPQEVSATVQKVMERLEYCNPYRLVWQSKVGPMPWLGPQTDESIKGLCERGRKNILLVPIAFTSDHIETLYELDIEYSQVLAKECGVENIRRAESLNGNPLFSKALADLVHSHIQSNELCSKQLTLSCPLCVNPVCRETKSFFTSQQL | – | – | –
3 | 14.1 µM | 540 nM | ferrochelatase (FECH) (protein, 100 uM 5-iodoisatin) GAKPQVQPQKRKPKTGILMLNMGGPETLGDVHDFLLRLFLDRDLMTLPIQNKLAPFIAKRRTPKIQEQYRRIGGGSPIKIWTSKQGEGMVKLLDELSPNTAPHKYYIGFRYVHPLTEEAIEEMERDGLERAIAFTQYPQYSCSTTGSSLNAIYRYYNQVGRKPTMKWSTIDRWPTHHLLIQCFADHILKELDHFPLEKRSEVVILFSAHSLPMSVVNRGDPYPQEVSATVQKVMERLEYCNPYRLVWQSKVGPMPWLGPQTDESIKGLCERGRKNILLVPIAFTSDHIETLYELDIEYSQVLAKECGVENIRRAESLNGNPLFSKALADLVHSHIQSNELCSKQLTLSCPLCVNPVCRETKSFFTSQQL | – | – | –
4 | 3.4 µM | 600 nM | ferrochelatase (FECH) (protein, 100 uM isatin) GAKPQVQPQKRKPKTGILMLNMGGPETLGDVHDFLLRLFLDRDLMTLPIQNKLAPFIAKRRTPKIQEQYRRIGGGSPIKIWTSKQGEGMVKLLDELSPNTAPHKYYIGFRYVHPLTEEAIEEMERDGLERAIAFTQYPQYSCSTTGSSLNAIYRYYNQVGRKPTMKWSTIDRWPTHHLLIQCFADHILKELDHFPLEKRSEVVILFSAHSLPMSVVNRGDPYPQEVSATVQKVMERLEYCNPYRLVWQSKVGPMPWLGPQTDESIKGLCERGRKNILLVPIAFTSDHIETLYELDIEYSQVLAKECGVENIRRAESLNGNPLFSKALADLVHSHIQSNELCSKQLTLSCPLCVNPVCRETKSFFTSQQL | – | – | –
5 | 15.2 µM | – | B1 | – | – | 550 nM
6 | – | ~500 nM | ferrochelatase (FECH) (protein, NHS/EDC-treated immobilized FECH) GAKPQVQPQKRKPKTGILMLNMGGPETLGDVHDFLLRLFLDRDLMTLPIQNKLAPFIAKRRTPKIQEQYRRIGGGSPIKIWTSKQGEGMVKLLDELSPNTAPHKYYIGFRYVHPLTEEAIEEMERDGLERAIAFTQYPQYSCSTTGSSLNAIYRYYNQVGRKPTMKWSTIDRWPTHHLLIQCFADHILKELDHFPLEKRSEVVILFSAHSLPMSVVNRGDPYPQEVSATVQKVMERLEYCNPYRLVWQSKVGPMPWLGPQTDESIKGLCERGRKNILLVPIAFTSDHIETLYELDIEYSQVLAKECGVENIRRAESLNGNPLFSKALADLVHSHIQSNELCSKQLTLSCPLCVNPVCRETKSFFTSQQL | – | – | –
7 | 14.7 µM | 580 nM | ferrochelatase (FECH) (protein, 100 uM 5,7-dichloroisatin) GAKPQVQPQKRKPKTGILMLNMGGPETLGDVHDFLLRLFLDRDLMTLPIQNKLAPFIAKRRTPKIQEQYRRIGGGSPIKIWTSKQGEGMVKLLDELSPNTAPHKYYIGFRYVHPLTEEAIEEMERDGLERAIAFTQYPQYSCSTTGSSLNAIYRYYNQVGRKPTMKWSTIDRWPTHHLLIQCFADHILKELDHFPLEKRSEVVILFSAHSLPMSVVNRGDPYPQEVSATVQKVMERLEYCNPYRLVWQSKVGPMPWLGPQTDESIKGLCERGRKNILLVPIAFTSDHIETLYELDIEYSQVLAKECGVENIRRAESLNGNPLFSKALADLVHSHIQSNELCSKQLTLSCPLCVNPVCRETKSFFTSQQL | – | – | –
8 | 13.8 µM | 610 nM | ferrochelatase (FECH) (protein, 100 uM 5-fluoroisatin) GAKPQVQPQKRKPKTGILMLNMGGPETLGDVHDFLLRLFLDRDLMTLPIQNKLAPFIAKRRTPKIQEQYRRIGGGSPIKIWTSKQGEGMVKLLDELSPNTAPHKYYIGFRYVHPLTEEAIEEMERDGLERAIAFTQYPQYSCSTTGSSLNAIYRYYNQVGRKPTMKWSTIDRWPTHHLLIQCFADHILKELDHFPLEKRSEVVILFSAHSLPMSVVNRGDPYPQEVSATVQKVMERLEYCNPYRLVWQSKVGPMPWLGPQTDESIKGLCERGRKNILLVPIAFTSDHIETLYELDIEYSQVLAKECGVENIRRAESLNGNPLFSKALADLVHSHIQSNELCSKQLTLSCPLCVNPVCRETKSFFTSQQL | – | – | –
9 | 15.5 µM | 530 nM | ferrochelatase (FECH) (protein, 100 uM 5-bromoisatin) GAKPQVQPQKRKPKTGILMLNMGGPETLGDVHDFLLRLFLDRDLMTLPIQNKLAPFIAKRRTPKIQEQYRRIGGGSPIKIWTSKQGEGMVKLLDELSPNTAPHKYYIGFRYVHPLTEEAIEEMERDGLERAIAFTQYPQYSCSTTGSSLNAIYRYYNQVGRKPTMKWSTIDRWPTHHLLIQCFADHILKELDHFPLEKRSEVVILFSAHSLPMSVVNRGDPYPQEVSATVQKVMERLEYCNPYRLVWQSKVGPMPWLGPQTDESIKGLCERGRKNILLVPIAFTSDHIETLYELDIEYSQVLAKECGVENIRRAESLNGNPLFSKALADLVHSHIQSNELCSKQLTLSCPLCVNPVCRETKSFFTSQQL | – | – | –
10 | 14.3 µM | 570 nM | ferrochelatase (FECH) (protein, 100 uM 5-methylisatin) GAKPQVQPQKRKPKTGILMLNMGGPETLGDVHDFLLRLFLDRDLMTLPIQNKLAPFIAKRRTPKIQEQYRRIGGGSPIKIWTSKQGEGMVKLLDELSPNTAPHKYYIGFRYVHPLTEEAIEEMERDGLERAIAFTQYPQYSCSTTGSSLNAIYRYYNQVGRKPTMKWSTIDRWPTHHLLIQCFADHILKELDHFPLEKRSEVVILFSAHSLPMSVVNRGDPYPQEVSATVQKVMERLEYCNPYRLVWQSKVGPMPWLGPQTDESIKGLCERGRKNILLVPIAFTSDHIETLYELDIEYSQVLAKECGVENIRRAESLNGNPLFSKALADLVHSHIQSNELCSKQLTLSCPLCVNPVCRETKSFFTSQQL | – | – | –

— paper PMC7593955 (2020)
